B1: EHMT1 (parent)
chain: FHKDCASRVNNASYCPHCGEESSK

Variants of: B1
Assay: protein stability index of a GFP-peptide fusion (GPS, HEK-293T) (PSI 1-6); higher = more stable
Conditions: c terminus: a fixed tail appended
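Note: lentivirally expressed fusions sorted by FACS into six bins by GFP to DsRed ratio, PSI derived from sequencing read proportions per bin multiplied by bin number.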

| Variant | protein stability index |
| --- | --- |
| FHKDCASRVNNASYCPQCGEESSK | 3.21 |
| FHKDCASRVNNASSCPHCGEESSK | 3.26 |
| FHKDCASRVNCASYCPHCGEESSK | 3.21 |
| FHKDCASRVVNASYCPHCGEESSK | 2.92 |
| FHKDCASRVNEASYCPHCGEESSK | 3.46 |
| FHKDCASRVNNASYCPHCGEESSF | 3.07 |
| FHKDCASRVNNASYDPHCGEESSK | 3.89 |
| FHKDCASMVNNASYCPHCGEESSK | 3.37 |
| FHKDCASPVNNASYCPHCGEESSK | 3.37 |
| FIKDCASRVNNASYCPHCGEESSK | 2.08 |
| FHKDCASRVNDASYCPHCGEESSK | 3.64 |
| FHKDCASRVNNASYCPHCGEESST | 3.25 |
| FHKDCASRVNNASYCPHCWEESSK | 2.96 |
| FHKDCASRVNNAQYCPHCGEESSK | 3.8 |
| FHKDCAWRVNNASYCPHCGEESSK | 2.76 |
| FHKDFASRVNNASYCPHCGEESSK | 2.72 |
| FHKDCASRVNNASGCPHCGEESSK | 3.38 |
| FHKDCYSRVNNASYCPHCGEESSK | 2.26 |
| FHKDCASRVNNASYCPHCGEEQSK | 3.55 |
| FHKDCASRVNNATYCPHCGEESSK | 3.72 |
| FHKPCASRVNNASYCPHCGEESSK | 1.88 |
| FHKDCASIVNNASYCPHCGEESSK | 3.94 |
| FHTDCASRVNNASYCPHCGEESSK | 2.45 |
| FHKDCAFRVNNASYCPHCGEESSK | 2.16 |

| Variant | protein stability index |
| --- | --- |
| FHKDCATRVNNASYCPHCGEESSK | 3.28 |
| FHKDCASRVNNASYCPHCGEESSV | 3.47 |
| FHYDCASRVNNASYCPHCGEESSK | 2.61 |
| FHKDCASRVNNASYVPHCGEESSK | 3.67 |
| FHKDCASRVNNASMCPHCGEESSK | 3.59 |
| FHKDCVSRVNNASYCPHCGEESSK | 3.5 |
| FHKDCASRVNNASYCPHDGEESSK | 4.03 |
| FHKDCASRLNNASYCPHCGEESSK | 3.73 |
| FHKDCASRVYNASYCPHCGEESSK | 1.95 |
| FHKDCASRVNNASYCPHYGEESSK | 3.16 |
| FYKDCASRVNNASYCPHCGEESSK | 3.69 |
| FHKDCASRVNNASYCPHCGIESSK | 2.95 |
| FHKDCDSRVNNASYCPHCGEESSK | 3.52 |
| FHKDCASRVNNASQCPHCGEESSK | 4 |
| FHKDCASRVNNASYPPHCGEESSK | 3.75 |
| FHKDCASRVNNASWCPHCGEESSK | 2.45 |
| FHKDCASRVNLASYCPHCGEESSK | 2.53 |
| FHKDCGSRVNNASYCPHCGEESSK | 3.59 |
| FHKDCASRVNNASFCPHCGEESSK | 3.36 |
| FCKDCASRVNNASYCPHCGEESSK | 5.31 |
| FHWDCASRVNNASYCPHCGEESSK | 1.78 |
| FHKDCHSRVNNASYCPHCGEESSK | 3.34 |
| FHKDCASRRNNASYCPHCGEESSK | 3.63 |
| FHKDCASRVNWASYCPHCGEESSK | 1.89 |

| Variant | protein stability index |
| --- | --- |
| FHKDCNSRVNNASYCPHCGEESSK | 3.41 |
| FHKDCASRVNNAHYCPHCGEESSK | 3.66 |
| FHKDCASRVNNASYCPHCGEETSK | 3.54 |
| FHKDCQSRVNNASYCPHCGEESSK | 4.04 |
| FHKDCASRVNNACYCPHCGEESSK | 2.37 |
| VHKDCASRVNNASYCPHCGEESSK | 4.78 |
| FHKDCASRVNNASYCPHCGEELSK | 3.22 |
| FHKDYASRVNNASYCPHCGEESSK | 2.25 |
| FHKDCASRVNNASYCPTCGEESSK | 3.58 |
| FHKDPASRVNNASYCPHCGEESSK | 1.77 |
| FHKDCASRVNNASYCPHCGEESGK | 3.34 |
| FHKDCASRVNNASYCPHCGEESFK | 3.63 |
| FHKDCASRVFNASYCPHCGEESSK | 2.82 |
| FLKDCASRVNNASYCPHCGEESSK | 3.58 |
| FHKDCASVVNNASYCPHCGEESSK | 3.34 |
| FHKDCASRVNYASYCPHCGEESSK | 2.68 |
| FHKDCASRVNNASYCPHCGEPSSK | 2.41 |
| FHKDCASRVNPASYCPHCGEESSK | 3.25 |
| FHKDCASRVNNASHCPHCGEESSK | 3.47 |
| FHKDCASRVNNASYCPHCNEESSK | 3.5 |
| FHKDCAPRVNNASYCPHCGEESSK | 2.87 |
| FHKDCASRQNNASYCPHCGEESSK | 3.74 |
| FHKDCASRVNNISYCPHCGEESSK | 2.95 |
| FHKDCASRVNNASICPHCGEESSK | 3.47 |

| Variant | protein stability index |
| --- | --- |
| WHKDCASRVNNASYCPHCGEESSK | 4.02 |
| FHKDCASRVNNASYCPMCGEESSK | 3.14 |
| FHKDCASRVNNASYEPHCGEESSK | 4.22 |
| RHKDCASRVNNASYCPHCGEESSK | 4.59 |
| FHKDCASRVNNASYCPHCGEISSK | 2.83 |
| FHKDCASRVNNASYCGHCGEESSK | 3.24 |
| FHKDCASRVNNAVYCPHCGEESSK | 2.76 |
| FHKDCASRVNNASYCPHCGERSSK | 2.92 |
| FHKDCASRVNNASYCPHCGEEFSK | 3.2 |
| FHKDCASRVNNASYCPHEGEESSK | 4.36 |
| FHKDCASRVNNASYCPHCGEESEK | 3.21 |
| FHKDCASRVNNAEYCPHCGEESSK | 3.77 |
| FHKDCASRVNNASYCPHCGEESQK | 3.89 |
| FHCDCASRVNNASYCPHCGEESSK | 4.57 |
| FHKDCASRVNNASYCPHCGEEASK | 3.46 |
| FHKFCASRVNNASYCPHCGEESSK | 2.04 |
| FHKDCASRVNNASYCRHCGEESSK | 2.96 |
| FHKDCASRVNKASYCPHCGEESSK | 3.54 |
| FHKDCASRVNNASYCPHCGSESSK | 3.16 |
| FHKDCASRANNASYCPHCGEESSK | 3.47 |
| FMKDCASRVNNASYCPHCGEESSK | 3.45 |
| FHKDCASRVNNASYNPHCGEESSK | 3.88 |
| FHKDCASRVNNAKYCPHCGEESSK | 3.46 |
| FHKDCAYRVNNASYCPHCGEESSK | 2.12 |

| Variant | protein stability index |
| --- | --- |
| FHKSCASRVNNASYCPHCGEESSK | 3.12 |
| FHKDCASRGNNASYCPHCGEESSK | 4.14 |
| FHKDCASRVNNASYCPACGEESSK | 3.68 |
| FHKDCASRVWNASYCPHCGEESSK | 2.37 |
| FHKDCASRVNNAFYCPHCGEESSK | 2.34 |
| FHKDCASRVNNKSYCPHCGEESSK | 3.36 |
| FHKDCASHVNNASYCPHCGEESSK | 4.23 |
| FHKDCASRVNNASYCPHCGDESSK | 3.92 |
| FHKDIASRVNNASYCPHCGEESSK | 2.42 |
| FHKDCASRVNNASYCPICGEESSK | 3.35 |
| FHKDCASRVNNAIYCPHCGEESSK | 2.17 |
| FHKDCASRVNNASYCPHCGVESSK | 2.94 |
| FHADCASRVNNASYCPHCGEESSK | 2.58 |
| FHKDCASRVNNMSYCPHCGEESSK | 3.24 |
| FNKDCASRVNNASYCPHCGEESSK | 4.18 |
| HHKDCASRVNNASYCPHCGEESSK | 5.16 |
| FHKDCASRVNNASYCPRCGEESSK | 3.5 |
| FHKDCASRVNNASYCPHCGRESSK | 3.16 |
| FHFDCASRVNNASYCPHCGEESSK | 1.92 |
| FHIDCASRVNNASYCPHCGEESSK | 2.7 |
| FHKDCASRVNNASYCPHCGETSSK | 3.4 |
| FHKDCASRVNNASYCPHCGEESSH | 3.45 |
| FHKDCASTVNNASYCPHCGEESSK | 3.1 |
| FHKDCASRVNHASYCPHCGEESSK | 3.82 |

| Variant | protein stability index |
| --- | --- |
| FHKDCASRVNNASYCPHCGEEVSK | 3.38 |
| FHKDCASRVNNASYCPHCGEESHK | 3.48 |
| FAKDCASRVNNASYCPHCGEESSK | 2.61 |
| FHKDCASRVNNASYCPHGGEESSK | 3.63 |
| FHKDCASRVNNASYCPHCGEESSG | 3.5 |
| FHKDCASRVNNHSYCPHCGEESSK | 3.22 |
| FHKDCFSRVNNASYCPHCGEESSK | 2.28 |
| FHKDCASRVNNASYCPHCGEESSM | 3.26 |
| FHKDCASRFNNASYCPHCGEESSK | 2.92 |
| FHKDCASRVNNASYCPHCREESSK | 2.84 |
| FHKDCASRVNNASYCPHCGCESSK | 3.55 |
| DHKDCASRVNNASYCPHCGEESSK | 4.77 |
| FHKDCASAVNNASYCPHCGEESSK | 3.78 |
| FHKDCASRINNASYCPHCGEESSK | 3.65 |
| FHKDCASRWNNASYCPHCGEESSK | 2.31 |
| FHKDCARRVNNASYCPHCGEESSK | 3.97 |
| FHKDCASRVNNASYRPHCGEESSK | 3.49 |
| FHKDCASRVNNASYCDHCGEESSK | 3.52 |
| FHKDCASRVNNASYCPHCGEEDSK | 3.35 |
| FHKDCASRVNNASYCPHCGEEMSK | 3.31 |
| FHKDCPSRVNNASYCPHCGEESSK | 3.83 |
| FHKDCASRVNNGSYCPHCGEESSK | 4.34 |
| FHKDCASRVNNASYCAHCGEESSK | 3.24 |
| FHKDVASRVNNASYCPHCGEESSK | 2.59 |

| Variant | protein stability index |
| --- | --- |
| FHKDCKSRVNNASYCPHCGEESSK | 3.53 |
| FHKDCWSRVNNASYCPHCGEESSK | 1.96 |
| FHKDCASRVNNASYCFHCGEESSK | 2.73 |
| CHKDCASRVNNASYCPHCGEESSK | 5.43 |
| FHKDCASRVNNASDCPHCGEESSK | 3.77 |
| FHKDWASRVNNASYCPHCGEESSK | 2.55 |
| FHKDCASRVNNASYCPHCKEESSK | 3.65 |
| FHKDCASEVNNASYCPHCGEESSK | 2.86 |
| FHKDCASRVNNASYCPHCGEEYSK | 3.36 |
| FHKDCASRVNNASYCPHCEEESSK | 4.05 |
| FHKDCASRVNNASYCPGCGEESSK | 3.18 |
| FHKDCASRVNNARYCPHCGEESSK | 3.16 |
| FHKDCASRVNNASTCPHCGEESSK | 3.73 |
| FHKDCASRVNNASYCPSCGEESSK | 3.4 |
| FHKDCASRVNNASYCPHIGEESSK | 3.04 |
| FHKDCASRVNNASYMPHCGEESSK | 3.16 |
| FHKDCASRVNNASKCPHCGEESSK | 3.59 |
| FVKDCASRVNNASYCPHCGEESSK | 1.96 |
| FHKDCASRVNNASYCPHCAEESSK | 3.93 |
| FHKDCASRVTNASYCPHCGEESSK | 3.03 |
| FHKDCASRNNNASYCPHCGEESSK | 3.39 |
| FHKDCASRVNNASYCPHCHEESSK | 3.36 |
| FHRDCASRVNNASYCPHCGEESSK | 2.57 |
| FHKDCASRVNNASYCPHCGLESSK | 2.78 |

| Variant | protein stability index |
| --- | --- |
| LHKDCASRVNNASYCPHCGEESSK | 4.78 |
| FHKDCASRVNNASYCPHCGWESSK | 3.77 |
| FHKDCASDVNNASYCPHCGEESSK | 3.43 |
| KHKDCASRVNNASYCPHCGEESSK | 4.62 |
| FHKDCASYVNNASYCPHCGEESSK | 2.63 |
| FHKDCASRVNNASYCTHCGEESSK | 3.42 |
| FHKDCASRVENASYCPHCGEESSK | 3.69 |
| FHKDCESRVNNASYCPHCGEESSK | 3.6 |
| FHKDCASRVNNESYCPHCGEESSK | 3.81 |
| FHKDCASRVNNASYCPHCGEESSP | 3.22 |
| FHKDCASRVNNASYCPHCMEESSK | 3.55 |
| FHNDCASRVNNASYCPHCGEESSK | 2.69 |
| FDKDCASRVNNASYCPHCGEESSK | 4.8 |
| FHKDCASRVNNAAYCPHCGEESSK | 3.36 |
| FHKYCASRVNNASYCPHCGEESSK | 2.02 |
| FHKDCASNVNNASYCPHCGEESSK | 3.94 |
| FHKDCASRVNNASYCPHQGEESSK | 3.59 |
| FHKDCASRVNNASYCPHCGEESVK | 3.41 |
| FHKDCASRVNNASYCPHCGEESIK | 3.87 |
| FHKDCASRVINASYCPHCGEESSK | 3.08 |
